Literature values, collected in publication PMC3760146.

Biological target: Histone H4 K8ac peptide 1-12 (Homo sapiens) (UniProt P62805)
Experiment: NMR titration

Kd: 346 µM
Substance: P/CAF bromodomain (from UniProt Q92831)
